Results from EP4477673A1, “IMMUNOCONJUGATE AND USE THEREOF” (priority 2022, dated 2023).

Tests used:
[1] = target: T1, IL-2Rβ/γ on M07e cells (human, UniProt P14784 27-551; P31785 23-369); assay: cell-based or functional assay
T1 sequence (looked up) 1: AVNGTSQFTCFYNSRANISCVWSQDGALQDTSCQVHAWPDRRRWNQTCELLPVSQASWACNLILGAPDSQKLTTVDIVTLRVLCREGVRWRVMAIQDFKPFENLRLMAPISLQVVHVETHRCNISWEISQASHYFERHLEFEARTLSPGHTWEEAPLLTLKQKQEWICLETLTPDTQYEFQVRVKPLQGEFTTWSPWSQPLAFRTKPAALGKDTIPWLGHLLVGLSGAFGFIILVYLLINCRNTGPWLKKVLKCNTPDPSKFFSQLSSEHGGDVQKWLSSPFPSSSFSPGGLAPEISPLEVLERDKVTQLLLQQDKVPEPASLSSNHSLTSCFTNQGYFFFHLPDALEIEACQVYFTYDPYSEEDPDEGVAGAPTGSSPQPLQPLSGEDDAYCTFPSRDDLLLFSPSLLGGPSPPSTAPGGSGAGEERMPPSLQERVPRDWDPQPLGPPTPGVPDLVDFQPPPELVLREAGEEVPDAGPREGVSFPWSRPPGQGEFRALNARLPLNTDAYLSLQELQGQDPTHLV
T1 sequence (looked up) 2: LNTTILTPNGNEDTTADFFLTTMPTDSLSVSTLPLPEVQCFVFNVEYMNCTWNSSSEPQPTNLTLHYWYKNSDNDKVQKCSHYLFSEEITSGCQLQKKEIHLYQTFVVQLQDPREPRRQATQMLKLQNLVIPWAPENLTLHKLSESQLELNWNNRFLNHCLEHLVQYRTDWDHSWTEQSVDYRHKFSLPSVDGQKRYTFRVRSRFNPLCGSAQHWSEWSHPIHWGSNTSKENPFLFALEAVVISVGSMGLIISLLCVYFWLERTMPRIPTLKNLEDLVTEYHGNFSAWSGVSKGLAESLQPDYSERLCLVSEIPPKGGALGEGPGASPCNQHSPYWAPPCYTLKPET

[2] = target: T1, IL-2Rβ/γ on M07e cells; assay: cell-based or functional assay; remark: listed apart in the source
[3] = target: T1, IL-2Rβ/γ on M07e cells; assay: cell-based or functional assay; remark: listed apart in the source
[4] = target: T2, human PD-1 (human, UniProt Q15116 25-288); assay: cell-based or functional assay
[5] = target: T3, Human PD-1 protein (His Tag) (human, UniProt Q15116 25-167); assay: ELISA, plate coated with human PD-1 (his tag), anti-human IgG4 Fc-HRP
T3 construct: also called PD1-H5221; PD-1 antigen; not shown: His tag

[6] = target: T2, human PD-1; assay: flow cytometry on Jurkat cells overexpressing human PD-1

T2 sequence (Q15116 25-288 limits assumed): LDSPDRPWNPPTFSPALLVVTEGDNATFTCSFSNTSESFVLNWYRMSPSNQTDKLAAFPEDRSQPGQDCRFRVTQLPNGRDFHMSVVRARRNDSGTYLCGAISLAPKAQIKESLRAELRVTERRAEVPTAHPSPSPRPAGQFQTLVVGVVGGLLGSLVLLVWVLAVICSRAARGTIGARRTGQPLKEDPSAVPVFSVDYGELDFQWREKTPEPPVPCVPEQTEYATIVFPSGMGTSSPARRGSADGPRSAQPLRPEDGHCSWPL
T3 sequence (Q15116 25-167): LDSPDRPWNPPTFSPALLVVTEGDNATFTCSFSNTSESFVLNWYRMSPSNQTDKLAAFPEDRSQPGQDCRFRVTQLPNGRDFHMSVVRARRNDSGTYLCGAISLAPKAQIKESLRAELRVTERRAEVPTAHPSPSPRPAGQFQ

B1: PEGylated IL-2 mutant (PEG-IL-2v) (ligand)
chain: APASSSTKKTQLQLEHLLLDLQMILQGISNYKNPKLTRMLTAKFYMPKKATELKHLQCLEEELKPLEEVLQGAQSKNFHLRPRDLISNINVIVLELKGSETTFMCEYADETATIVEFLNRWITFAQSIISTLT
modifications: PEGylated (site not stated)
M07e-hPD-1 cell proliferation ratio (%) at 0.0001 nM [1]: -2.2% | M07e-hPD-1 cell proliferation ratio (%) at 0.001 nM [1]: -2.1% | M07e-hPD-1 cell proliferation ratio (%) at 0.01 nM [1]: -2.6% | M07e-hPD-1 cell proliferation ratio (%) at 0.1 nM [1]: -2.2% | M07e-hPD-1 cell proliferation ratio (%) at 1 nM [1]: -0.6% | M07e-hPD-1 cell proliferation ratio (%) at 10 nM [1]: 24.4% | M07e-hPD-1 cell proliferation ratio (%) at 100 nM [1]: 76.7% | M07e-hPD-1 cell proliferation ratio (%) at 1000 nM [1]: 89.1% | M07e cell proliferation activity (%) at 0.46 nM [2]: 0.7% | M07e cell proliferation activity (%) at 1.4 nM [2]: 2.6% | M07e cell proliferation activity (%) at 4.1 nM [2]: 11.2% | M07e cell proliferation activity (%) at 12 nM [2]: 34.2% | M07e cell proliferation activity (%) at 37 nM [2]: 68.2% | M07e cell proliferation activity (%) at 111 nM [2]: 88.3% | M07e cell proliferation activity (%) at 333 nM [2]: 102% | M07e cell proliferation activity (%) at 1000 nM [2]: 89% | M07e-hPD-1 cell proliferation activity (%) at 0.0001 nM [2]: 1.9% | M07e-hPD-1 cell proliferation activity (%) at 0.001 nM [2]: 1.1% | M07e-hPD-1 cell proliferation activity (%) at 0.01 nM [2]: 0.5% | M07e-hPD-1 cell proliferation activity (%) at 0.1 nM [2]: 0.4% | M07e-hPD-1 cell proliferation activity (%) at 1 nM [2]: 3.3% | M07e-hPD-1 cell proliferation activity (%) at 10 nM [2]: 33.3% | M07e-hPD-1 cell proliferation activity (%) at 100 nM [2]: 104% | M07e-hPD-1 cell proliferation activity (%) at 1000 nM [2]: 100% | M07e proliferation, EC50 [3]: 20.9 nM | M07e proliferation, Maximal fluorescence value (Max Lum) [3]: 4.45e+06 Lum | M07e-hPD1 proliferation, EC50 [3]: 13.3 nM | M07e-hPD1 proliferation, Maximal fluorescence value (Max Lum) [3]: 7.94e+06 Lum

B2: A17_hIgG4 (antibody, V domains shown)
VH: EVQVVESGGGLVQPGGSLRLSCVASGLTFSDYSMSWYRQAPGKERELVAIISGSGVIAHYVDSVKGRFTISRDNAKSTVYLQMVSLKPEDRGVYYCRAVSDWDDYWGQGTQVTVSS
IC50, PD-1/PD-L1 NFAT reporter gene system [4]: 1.2 nM | EC50 [5]: 0.061 nM | EC50 [6]: 0.357 nM
